Assay results: PMC8629394, “Anaerobic peroxisomes in Entamoeba histolytica metabolize myo-inositol” (PLoS Pathogens, 2021)
Where “and” joins values, the source holds several entries; their conditions need not be identical. Identical values can stand only once.

Assays:
[1] = substrate: NC(=O)C1=CN([C@@H]2O[C@H](COP(=O)(O)OP(=O)(O)OC[C@H]3O[C@@H](n4cnc5c(N)ncnc54)[C@H](O)[C@@H]3O)[C@@H](O)[C@H]2O)C=CC1; test: purified protein; type: biochemical, Entamoeba histolytica; conditions: reverse reaction, keto-2-inositol as presumed co-substrate (concentration not stated); varied: cofactor
[2] = substrate: NC(=O)c1ccc[n+]([C@@H]2O[C@H](COP(=O)(O)OP(=O)(O)OC[C@H]3O[C@@H](n4cnc5c(N)ncnc54)[C@H](O)[C@@H]3O)[C@@H](O)[C@H]2O)c1; test: purified protein; type: biochemical, Entamoeba histolytica; conditions: 12.5 mM myo-inositol, 10 mM sodium pyrophosphate pH 9, room temperature; pH 9.0; varied: cofactor
[3] = substrate: NC(=O)c1ccc[n+]([C@@H]2O[C@H](COP(=O)(O)OP(=O)(O)OC[C@H]3O[C@@H](n4cnc5c(N)ncnc54)[C@H](OP(=O)(O)O)[C@@H]3O)[C@@H](O)[C@H]2O)c1; test: purified protein; type: biochemical, Entamoeba histolytica; conditions: 12.5 mM myo-inositol, 10 mM sodium pyrophosphate pH 9, room temperature; pH 9.0; varied: cofactor
[4] = substrate: O=C1[C@@H](O)[C@H](O)[C@@H](O)[C@H](O)[C@H]1O; test: purified protein; type: biochemical, Entamoeba histolytica; conditions: reverse reaction, NADH as co-substrate (concentration not stated)
[5] = substrate: O[C@H]1[C@H](O)[C@@H](O)[C@H](O)[C@@H](O)[C@@H]1O; test: purified protein; type: biochemical, Entamoeba histolytica; conditions: 1 mM NAD+, 10 mM sodium pyrophosphate pH 9, room temperature; pH 9.0
[6] = substrate: O[C@H]1[C@H](O)[C@@H](O)[C@H](O)[C@@H](O)[C@H]1O; test: purified protein; type: biochemical, Entamoeba histolytica; conditions: 1 mM NAD+, 10 mM sodium pyrophosphate pH 9, room temperature; pH 9.0
[7] = molecular target: the molecule itself; test: SEC-MALS; enzymatically active myo-IDH, 0.5-2 mg/ml, Agilent Biosec-3 column, 0.3 ml/min, 50 mM phosphate buffer pH 7.0, 300 mM NaCl, 15°C; miniDAWN light scattering, refractive index and UV detectors

B1: recombinant 6xHis-tagged E. histolytica myo-inositol dehydrogenase (myo-IDH) (enzyme, Entamoeba histolytica, UniProt C4LVW1 1-316, looked up)
chain: MQSNKVRICLCGTGRLGSFRASLFIESQDIELVGVVEPFRVCQSVLDRPNIKIFKTVEEINIPIDGIWISTPTKFHLQTIKLASKKVKHIYCEKPIASTPEEVKEAYETCRKNGVSLHCGWMRRRDPGYQSIKEYLVSHNVSIQRAEFHSFDWPLVPPEFLKTLGNIFTDLMCHDFNLIMYYMNNTLPKYVTAVGIDGGAGVWDSATASLEYPNNVVLTIIATRNGNKVYDNSLTVLTSDSHILECGKEPENLTETFMKRHEKNFKKELPFFANIIRNNGTSGDVLSCVNTSILIQAATRSATLGGKRIPLVIPKL
notes: myo-inositol dehydrogenase (myo-IDH, EC 1.1.1.18) of Entamoeba histolytica, gene EHI_125740; theoretical weight 36.4 kDa including the 6x-His tag; the natural protein ends in a PTS1 tripeptide; also called putative inositol dehydrogenase; EHI_125740; source: E. coli BL21 Rosetta, pET42b, purified (Ni-NTA agarose, native conditions, imidazole)
Which Km [1] does the source give for B1 here?
Its Km is 9 ± 0 µM.

What about the Vmax [1] of the same protein?
The Vmax was 1.64 µmol/min/mg.

What about the Km [2] of the same protein?
Its Km is 38 ± 4 µM.

What about the Vmax [2] of the same protein?
The Vmax was 1 µmol/min/mg.

And the Km [3]?
Its Km is 1201 ± 532 µM.

And the Vmax [3]?
The Vmax was 0.826 µmol/min/mg.

And the Km [4]?
Its Km is 322 ± 34 µM.

What about the Vmax [4] of the same protein?
Its Vmax is 4.41 µmol/min/mg.

What about the Km [5] of the same protein?
Its Km is 229 ± 20 µM.

What about the Vmax [5] of the same protein?
Its Vmax is 6.2 µmol/min/mg.

What about the Km [6] of the same protein?
The Km was 44 ± 4 µM.

And the Vmax [6]?
Its Vmax is 5.45 µmol/min/mg.

And the “stoichiometry N” value [7]?
Its value is 2 and 3.
